System: RuBpy-labeled Sheep anti-mouse IgG coated beads
Experiment: ECL-based assay for the measurement of protease activity
Format: biochemical
Settings: in words, 30 minutes at 37° C., solution phase, FIG. 9
Procedure: This assay system consists of a ruthenylated (RuBpy-labeled) substrate immobilized on paramagnetic beads and the enzyme of interest. The RuBpy label is released by the action of the enzyme. The ECL of the free label is measured using the ORIGEN Analyzer (IGEN International).
Dynabead® M280 Sheep anti-mouse IgG coated beads (IGEN International, Inc.) were RuBpy-labeled at a 200:1 challenge ratio of RuBpy to IgG to introduce RuBpy groups on the immobilized IgG molecules. The labeling was carried out using a derivative of RuBpy linked to an NHS ester (TAG-NHS, IGEN International) according to established procedures. The beads were then washed three times, thirty minutes each, at 4° C. with equal volumes of PBS, pH 7.8, and once overnight at 4° C. Replicate test samples were prepared with 100 μl of solutions containing known amounts of Proteinase K (Sigma) in phosphate buffered saline, pH 7.8 and 25 μl of 1.2 mg/ml TAG labeled Sheep anti-mouse beads. […] The reaction was quenched by the addition of 1 mL of a solution containing tripropylamine (ORIGEN Assay Buffer, IGEN International, Inc.) and the protease activity was quantitated on the ORIGEN 1.5 Analyzer with the solution phase default settings (i.e., the beads are kept in suspension so as to preferentially measure ECL at the electrode from RuBpy groups in solution) except for high vortex speed.

B1: Proteinase K: Proteinase K (Sigma), protease measured in the ECL assay (protein, UniProt P06873 106-384, looked up)
Proteinase K: AAQTNAPWGLARISSTSPGTSTYYYDESAGQGSCVYVIDTGIEASHPEFEGRAQMVKTYYYSSRDGNGHGTHCAGTVGSRTYGVAKKTQLFGVKVLDDNGSGQYSTIIAGMDFVASDKNNRNCPKGVVASLSLGGGYSSSVNSAAARLQSSGVMVAVAAGNNNADARNYSPASEPSVCTVGASDRYDRRSSFSNYGSVLDIFGPGTSILSTWIGGSTRSISGTSMATPHVAGLAAYLMTLGKTTAASACRYIADTANKGDLSNIPFGTVNLLAYNNYQA
- ECL signal as a function of the concentration of enzyme: directly related to the concentration of enzyme
